# The DeepSol protein solubility set
# Test: soluble on expression in E. coli; label from the status in PepcDB or PDB records
row,Sequence,soluble on expression in E. coli
1,MFAFSKGPAGSSTYDRVAQKFQDGYEKMRAAIEMDELTKHAGSIQEKLRTAELYKEARSLLKEANEFNIMDIPETRRSEIRDKRQNMMKLEKSAQDRLIAICNEVDPNVKQSRSATVGPSRPASAARVTPRPTRATAPASLPMHQNPVNRAALLNGVDKVIGERLLDEVLDNTGVRMDDVAGCHSAKAALEEAVILPALNPNLFKGLRQPVKGILLFGPPGNGKTLLAKAVAGESKQMFFNISASSLTSKWVGDSEKTIRGLFQIARNAQPSIIFIDEIDSILCERSEKDAEVSRRMKTEFLVQFDGATSSADDRILVIGATNRPHELDDAVLRRFPKRIMLNLPDEEARKELITKTLKKHNMMDGLISSDIRYIASNTSGFSNSDLVALCKEAAMVPIREIDRSKLSMTDGEKIRKIRASDFDTALRTIRPSTSQKIMSKLSDFSRSFGC,not soluble
2,MSLKIAQATARVEAFALVRPYTIALRHVGTVENVIVQLQTASGLIGLGAASAAADVTGESDQACREALLGGAIGWLVGEDIRELPKLCRRLGERMAGRPAARAAVDIALHDLLAQHLGVPLVAMLGRVHTGLPTSITIGIKPLDETLAEAREYLGRGFRILKVKTGLDLEGDIERLARLREQVGDAVHLRVDPNQGYSIAEVEQFVRRTAHLFLEFLEQPIPAGDIAALRALPPDIRLRIAADESLLDERDALKLLTPSPACGIFNIKLMKCGGIRPALAIAGLAEIAGIELMWGCMDESIVSITAALHAALACPATRYLDLDGSLDLARDVVTGGFVLKDGYLSTREAPGLGVQLLSEGHHHHHH,not soluble
3,MGSDKIHHHHHHMLESTEKGEVRKTVGNYRLILMNDPNLQGAFRLNMFTDKIDITRDLGWYRESDSLTDVDLKFLVVYLEKHYGLSNEKRIEDVIKVVANENRYHPVLDRINSITWDGRERIRYALHHFLGAEVSEYTYEVMKLFMIGTIARISCPGIKFEVMLCLVGGQGAGKSTFLRFLAMEDDWFTDDLKKMDDDNVYRKIQGHLIIEFPEMVAILNAKNVEDTKSFMSRQKDTYKTPYDRHPKDHKRQCVFAGSSNSLDFLPMDRSGNRRFLPILCNMEEAETHILDDEKTSREYIDQMWAEAMEIYRSGKCQLRLPKEMEKELCEYQKQFMQEDTKKELILDYLEHYEGSMVCSRQLYSEALGNDGNPAQWEIREINDIMNNCSDWIAFSNPRHFPEPYRRQKGWEKPDNRGQDFQPITKEQMEQLSLPPEWMER,not soluble
4,MAAQLSEIEVKGVKIPLIYEKSTLMPAVNLQIVFTHAGSITDEIPGLASLSARIFNEGTKTLGSVEFAKELENRAISLSVGSGNETLVFDMSALKSEYLEGLRLTRELLRQPNFTKEALSKVKTDIKASLLRKESDFDYVAQVELHRRLFEGTPLEYPSMGNRESIEKITLKEVEEFWKKRGVLRRAIVLVGGDVELEEVKKDLLSLLSVLPLGEEGELVRYEAKGDLEVKSVIKNTQQAYIYFGSPFSVKNLREDSYKAKVAAFVLGSSGFGSRMMEEIRVKRGLAYSAYWRISLSKSVNYSLGYLQTKLENEQQAIGVVRELIEEFLQKGITEKELEGAKQFLLGSEPLRNETLSQRLSSAFSAYYRGLPLDFAKEELHKIEALTLEEINAYIKEHQELLQLSFSVVTAPKE,not soluble
5,KVDKKTYKNLIVELQQRMREIQFALYERKIPLVLVFEGMDAAGKGGNIKRIREKLDPTGYEVNGISAPTDVELKHHYLWRFAKKMPKSGHIEIFDRSWYGRVLVERVEGFASQNEWQRASDEINQFEKMWTDEGTIILKFFLCLDKDEQLKRFKDRENNPDKQWKITEEDWRNREKWDEYLEASHDMIESTNTSYAPWYIVPADHKKTSRIEVLKTIIRKCEEVLWGVKTY,not soluble
6,MGSDKIHHHHHHMGTCLLSGLSEPSGGISEHLRGQTDQLGFRQFPHGLSGITQPCRGHRAPLAGLHPRYLRFSQSTPAHFVILTTESMTPTPEIPEPHYIGHRQRLKKKFFKCGLQALHDYEAVELLLSYAIPRKDIKSLSKDLLERFGSLKGIMDAELEELTAVRGISAHAAGLVRMVKEMSALYLQEKAREKPQISCTGELLDFCKTALGGLKDENFCVLYLDTQNRIIAFETIQKGIVNQAVVYPRQVIERALSHKSSALILVHNHPSGFVKPSDADIRLTRTITDTAKLLDIMVHDHLIIGENRFFSFREEGIMPL,not soluble
7,MTKKYDLHCHSTASDGVLSPTELVHRAYAQGVNVLALCDHDTIAGIDEAEIAAKEVGIELITGVEISTNWEGRGIHIVGLNFDKTHPKMTALLQSQKALREKRAVEIGDKLEKAGIPNAYDGAKALADGEVTRAHYARYLVQIGKVSNDGQAFKRYLGQGKSAFVKAEWADIPTAIETIHAAGGIAIIAHPLRYNMTGKWVRKLIVDFKAWGGDGMEMADCGQTKDQRQMLARWAKEFDLQGSVGSDFHFPCGWIELGKNLDLVDSVIPVWEKFLEHHHHHH,soluble
